Assay results as given in the DeepSol protein solubility set.

Assay: soluble on expression in E. coli; label from the status in PepcDB or PDB records

MGSDKIHHHHHHMLNPLWLKTFITLVETGHFTQTASKLFMTQPGVSQHLNKLEQACGHQLLIRSRSGIELTEAGERLYQYALSQARAEAALLDSLDEDNPFSGSCRLACSGSLAQLLYPKLLALQAAHPGLKVHMEAAPNARIINEVQQGDKDLGIITAPPPRGLFSDTDIGTQALCLVLPASSEATTDDASLPSINELKVLGLISHPDAAHYLSLFFAHSGSPGYQNAFAEDFPISSYINQLGQILLPVSMGLGFTVLPLSVVEQFSERDKLRVCVGLERVFEPLYLIHKRQRQLPARFDTIRSLIQSVLTSTTDSPQ
soluble on expression in E. coli: not soluble

MESKVERYVENYVVTKNTMALLPVILSEKKIVTRVVEMNDSFFVFQKPLDIIERSCRKHGSSFLGRKEGTKELTHITHKAPIAISPADQLYFFPTYSYSRKECAWLSHFYIESNKELKDGNLIIRFINGFAVKLEISKTSFENQQNRTAKLRTEYEDRRKKQGNPCFKEVDKKEESTLRPAYESVYFVKEGEV
soluble on expression in E. coli: not soluble

MGSDKIHHHHHHMQNFVLTVSCKSTRGVVAALSGYLAEQGCNIADSSQFDDLDTGKFFMRTSFISEERVGLAALEEGLKPIASKFEMETALHEQSERMKVLLMVSRFGHCLNDLLYRWKIGALPIDIVGVVSNHFDYQKVVVNHDIPFHHIKVTKENKPKAEAQLMDVVEQTGAELIVLARYMQVLSDALCKKMSGKIINIHHSFLPSFKGANPYKQAYERGVKLIGATAHYVTADLDEGPIIEQDIARITHAQSAEDYVSIGRDVESQVLARAVHAHIHHRCFINGNRVVVFPPSPGSYASERMG
soluble on expression in E. coli: not soluble

MSLDGKPTIIIKYGKIDEEAMKSQRYNFDDLMVQLRENSIDRVADVSFAILEPSGKLTIVKKENSGEHRQLEMPLIIDGFIQTENLSRISKDRKWLLESLQKHGYTNPSDISFCSFTDGEIYIDEKDGHRTKGIITITTDPNSSSVDKLAAALEHHHHHH
soluble on expression in E. coli: soluble

MGSDKIHHHHHHMSENPIDAFIPEDIRDLYEIHNYRNAAQVLATGCPNEFQEIIEALRVFRLTLADIRKPGGNESDIPKRISGLLRAKGWMETRIKGDLLITKVSGTIDKNLGEKDLEGMEENESDTLEKIEELKNKGQVERIVRENFLDGHKVDYVKKRVAFDLEWNSKDQTFDRDLYAFRAFHECDLIDAAILLTRSASLNAVFEKLGPELNSDGTPKTSKNGKPKLIKTKYGASTTWMGKLLYRLNACRHGGCPVLALGITPNLITDWAEYESKNT
soluble on expression in E. coli: not soluble

AHHHHHHGSDLERALNAFHSMKVNQLTPPCSQMPIVEEDSPIIDVLKLLRTRHHVWVVNNRKDMKLVGIIRYLDIIDIFLPPKGARLGAVSSVFKSILSGAEKAGDIMERNFLTINEDATVLEALEKMKRYKIQILALIDEEGKLKGEISLRILINEFLRLIRVGGG
soluble on expression in E. coli: soluble

MGHHHHHHSHMRIVMKFGGVSVKDGENIYHCANLVKKFSEGNEVVVVVSAMQGVTDALLKAAHRCCSEPSAGFIKMFIADMMKRHYEAIEYAVRNDEIKAKVIAAVERLLDELEKVLLGISYLGELTRRSEDYIVSFGERLSAPIFSAALLSLGVDSVALTGGDAGIITDRNFGRAKPLPGVYTTIRNRLEPLLTIKKTIPVVTGFIGATDDGSITTLGRGGSDYTATILAAALDADEVWLWKEVDGIMTCDPKYVPNARVIPEISYQEAMELSHFGAKILHPRALEPVMRKNIPVRIKN
soluble on expression in E. coli: not soluble

MSLALDLLLLPTWLVPVEPAGVVLREHGLGIRDGHIVFIGPRAEALKYRATEIRELPDTLLTPGLINAHGHAAMTLFRGLADDLLLMTWLEKHIWPAEAKWVDEAFVRDGTDLAIAEQIKGGITCFSDMYFFPKVASERVHNSGMRAQVAIPILDFPIPGAQNADEAIRQGVELFGDLKHHPRINITFGPHAPYTVGDENLEKIRIIAEELDAAIHMHVHETAHEVQQSVEQHGERPLARLARLGLLGPRFQAVHMTQISDDDLALLVETNTSVIHCPESNLKLASGFCPVERLWQAGVNVAVGTDGAASNNDLDLLGETRTAALLAKAVAGSATALDAHRALRMATLNGARAMGLESQVGSLEIGKAADLTAFDLSGLAQQPIYDPVSQLIYATGRDCVKHVWVAGKQLLDDRCLTRLDEHQLGATARDWARRISGHEGHHHHHH
soluble on expression in E. coli: soluble

MYKFVLIASLLVALCMAAPPRQESEAERIEREEYEKYQNENAQYSFNSSVDDKINDGQISRNEEREGGTVRGSYSYFDGFVKRRVEYIADKDGYRVLKDEIEDVGNGPSFNPDGIANVEGSMIGKYSIKLDKADDDKHYKDIHALEHHHHHH
soluble on expression in E. coli: not soluble

MTPGFPLPKPDVLSRPFWDFAQRGVLSLQRCRHCGDVHFPAAPVCPACLSEQQEWVPASGRGTLFSWCEFHKGYWDSVASLLPYRVAVIKLNEGPLLISNLVDVADCAALRADAPVEVVFRPVSADINLPVFRLRHAY
soluble on expression in E. coli: not soluble

MLAVVDEEGTPVAGAMGFAQVVRDGLVVDYIGAVDILRELKATLEESLGAELLKAGVAYPPGTSPGDQKALHYIAEAAGFNVIAALDEPTAANNVLNIEDGAVIDIGGGTTGTAVIGQGQVVCVADEPTGGTHVSLVIAGAYRLPFAEAEKLKMDSCKHQELLPIIKPVIEKIAGIIRQHIQEHPVDQVYLVGGTSCFTGFETIVAAELQRPVIKPANPFLVTPLGIALAAAKTCSNP
soluble on expression in E. coli: not soluble

MSLKKKVVIVGGGFTGLNTARILSNRKDVEVTLIDRKNYHLFQPLLYQVAMAALGEGDIATPLRNMLAGYDNVTVFKGNVCNVDLEQKKVKTDFGDIEYDYLVLACGAQHHYFGKNDWEEHAPGLKNLAQASEIRRRVMEAYEAAERTNDMKERKKQLTFVIVGGGPTGVELAGSIGEMSRYTLSKFYRHIDPKLTRIFIVEAAERILGTFSPELSSKATRELEKLGVQVWTSSMVSDVDADGVQIGRERIEAATVLWAAGVKASEIGQNMGVQTDRSGRIMVEADLSLPGHPEVFVGGDQACYTLENGSTLPGMAPVAMQEGKAIGRMILDDLKGKPRKPFKYRDKGQMATIGRNRAIVEIGNLKFDGEGHHHHHH
soluble on expression in E. coli: soluble

MGHHHHHHSHAEDATERACGLTMDPECAQLLPALCAVLVDPRQPVADDTCLEKLLDWFKTVTEGESSVVLLQEHPCLVELLSHVLKVQDLSSGVLSFSLRLAGTFAAQENCFQYLQQGELLPGLFGEPGPLGRATWAVPTVRSGWIQGLRSLAQHPSALRFLADHGAVDTIFSLQGDSSLFVASAASQLLVHVLALSMRGGAEGQPCLPGGDWPACAQKIMDHVEESLCSAATPKVTQALNVLTTTFGRCQSPWTEALWVRLSPRVACLLERDPIPAAHSFVDLLLCVARSGPRDAAGGPGWATVFLG
soluble on expression in E. coli: not soluble

MQEVKQWPVKIMLVHPKAPFLKGEKIVIAADCAVLVNRDIRDRFESDAVIIGCPMLEDPRRMFERIKMIVAESDAKLEVYTMEVPCCHALHLMVEKAKEEHGKQTESEKYIVRVSGAVEPYSKKIDESMIEAERRAHRGH
soluble on expression in E. coli: not soluble

MRATAIKIFSLSSALALLLHGCLSINLKQMLPEIRTYDLNASSFEITQCAKPLTEVRLISILSADLFNTKEIVFKAKDGQITHGKHQKWIDLPRNMLKTMFMQEAQKACLGVALPPYGAGAPTYAVRFTILSFSLLEKENSTYRAEFALGYDISVKGDSHSGVIIKHENISSLENKTTKTSKNGNQDFQESAIQSLQHVSVQAIQEAVSLIKKAIEAQSVSPLKK
soluble on expression in E. coli: not soluble

MSLATICSLCNKKISIFKMRLKFKDGVVGQSCLSELNLCNFWAFEPGAKEYAESHTIADLKELQTSGKDFTNIQDQYIDDETKKELQKKQEKKQERQEKIEVLKEFKDDGATKFSSYYFDLKKNQILSSGSLTTSWRVIDFSEVLSYQVNRNGHLEQKHHGIARAVTGGIMAGGVGAIVGTTTGENTDYIDHLGLVINLSDGTNFEVKFLKTKTKTNSFTVKTAEGELRSLISIVQSGMNKAQEKAEQEQTKANTIKIESNADPAEEIRKFKKMADEGIISNEEFEAKKKQLLNLQEGHHHHHH
soluble on expression in E. coli: not soluble

MAHHHHHHMLRHLPPPRAHPSPAFCHTHARMHLLQAPPSPHPHPTRTPLQTLCVILPPAMQVELSFIFPHALKELPVSFFVPLSSQRPRTVANLFFMCSGQLPLPAELLSALHLTEAEVAYATPAAAKAAGLLPLSDSAVVRIDKASVMEIGSSTTKSIFGGFISDERVTLPAGTAARGQSIAATMSSLKAGTLLYGNLGMPNTQASRYYILLEPVTTPEQRHEFAGFAPLGMVTGGLAELKRAASQTAVQPRTLVPKKKVVVSGCRMQLDYTYLSSSTEASASVSLGGLCDGTGQDAGKQRPTEPHERVAGRVRRRDDDGDEAKQADPRRALDGDGNTTDPGAAPLHSSGFFKISARFPKAAVAASGAGPSLKRRRAEAFVVGDDGVPTLRTTAIAPGEQVGGDGTAEPFEFFKAQQDAFMNDIEGIKDAQLQRFNRKARRIMKSRRAWASSSSSGRHANSQQHSSSSGTHVTGSGALSKTGAKKTKPKRY
soluble on expression in E. coli: not soluble

MSLGPILVASEDYGRRVELSAMLRGFGYRVIEAENGLRTIDLLHRRKNIVLALLDVVMSDLSVGDLIKMIRVAGVAVPIVVIAQQENQELLQKALTAGAIDYWIHPVTLLRLRVTLDTLALISALEREVHYIRRKKENHLRFSDLSIKSRAMQIVLEQSKRAASSLQNLLIEGEVGTGRETLARIIHHEGLLSEGDFIRFQCLAIVDPEEENHQWFKEFIPLVSSLEKGTLCLCDVDRLEPIQQKRFMHYLKEREKATKDKVFPFRIIAISTSRLSDLVKEGFFLHSLFEQFSQLSISVPALRELRDDFPDLTQRLIDRIITETGRSHVHGLAGSALSLLMQYDWPGNRNGLENFLFRAILLSDGPLLTVRDFPQLMGNSLMNVPKIIESNMQEDHEQESVKFLDVDGHVRTFAEMERDIIEKAFKHYKGHMSEIARRLRIGRSTLYRKIEGLRAISSQEGHHHHHH
soluble on expression in E. coli: soluble

MCNTPTYCDLGKAAKDVFNKGYGFGMVKIDLKTKSCSGVEFSTSGHAYTDTGKASGNLETKYKVCNYGLTFTQKWNTDNTLGTEISWENKLAEGLKLTLDTIFVPNTGKKSGKLKASYKRDCFSVGSNVDIDFSGPTIYGWAVLAFEGWLAGYQMSFDTAKSKLSQNNFALGYKAADFQLHTHVNDGTEFGGSIYQKVNEKIETSINLAWTAGSNNTRFGIAAKYMLDCRTSLSAKVNNASLIGLGYTQTLRPGVKLTLSALIDGKNFSAGGHKVGLGFELEALEHHHHHH
soluble on expression in E. coli: soluble

MGSDKIHHHHHHKYTLRFGHVLAPGEPYHQAFLKWAKAVEEKTNGDVRIEVFPSSQLGVEEDIIEQIRMGAPVGWNTDSARLGMYVKDIGVMNLAYFIDFMGAKTPEEAIEVLKKIKQSPTMQKWLKELEQRFGIKVLSFYWVQGYRHFVTNKPIRKPEDLNGLRIRTPGAPAWQESIRSLGAIPVAVNFGEIYTAVQTRAVDGAELTYANVYNGGLYEVLKYMSETGHFLLINFEIVSADWFNSLPKEYQKIIEEEMDKAGIEVSLKIMKELEEEYKQKCIEKGMAVIPASEIDKEAFMEKAKQAYKNLGLENALNQLIKEVKGE
soluble on expression in E. coli: not soluble

MYLCEEHFKEYFERKVARTIEKYKLASKDERILVAVSGGKDSAVTAYVLKKLGYKIECLHLNLGIGEYSEKSEIYAKKQCEFIGAPLNIIRVKELLGYGIGEVRTSRPTCSYCGLTKRYIMNKFAYDNGFDAVATGHNLDDEASFLMNNLLHWNTEYLAKGGPLLPGEGKFVKKIKPLYELTEREVVAYAIAVGLEYIVEECPYARGATTLDMKEVLNELEEKRPGTKFNFVRGFLRKKKLFEPEVKGKDLKECKICGMPASGEICSFCKFWKLGKPLTFKIK
soluble on expression in E. coli: not soluble

MSETPEYGVLSWWDYGNWIVYVGKRPAVSNNFQTGVEDSANFLLTDSEEEAKTIVEKLKVKYVMTDTLMAEGKFSSITSLAGKEIGEYYEVETVKGDTGLRTVATPKQALLQTQVYKLHKLDGTSLGHFRLVHESAVNSTDDGNSKENTVKVFEYVKGATLSGTLEHHHHHH
soluble on expression in E. coli: not soluble

ADPALADVCRTKLPSQAQDTLALIAKNGPYPYNRDGVVFENRESRLPKKGNGYYHEFTVVTPGSNDRGTRRVVTGGYGEQYWSPDHYATFQEIDPRC
soluble on expression in E. coli: soluble
